According to US12287344B2, “Fret-based method to measure seeding activity of misfolded protein species in biological samples” (MAX-DELBRÜCK-CENTRUM FÜR MOLEKULARE MEDIZIN IN DER …, priority 2018, dated 2025):

Test system: Ex1Q48-CyPet/-YPet
Experiment: FRASE assay: effect of added preformed fibrils/seeds on Ex1Q48-CyPet/-YPet polymerization
Type: biochemical, human
Conditions: sonicated Ex1Q48 seeds (~1,250 kDa); sensor 1:1 mixture, 1.2 μM
Experimental: (B) Effects of small, preformed Ex1Q48 seeds (1250 kDa) on Ex1Q48-CyPet and -YPet (1:1 mixture, total conc. 1.2 μM) co-aggregation. Data are mean±SEM (n=5).
(D) Effects of non-polyQ fibrils on Ex1Q48-CyPet and -YPet (1:1 mixture, total conc. 1.2 μM) co-aggregation. Data are mean±SD of triplicates.
Spontaneous Ex1Q48 aggregation was initiated by addition of 14 U PreScission protease (GE Healthcare) per nmol purified GST-Ex1Q48 fusion protein (2 μM). The aggregation reaction was performed in 50 mM Tris-HCl pH 7.4, 150 mM NaCl, 1 mM EDTA and 1 mM DTT at 25° C. and constant agitation (450 rpm) for 24 h. […]
Purified GST-Ex1Q48-CyPet and GST-Ex1Q48-YPet were diluted in aggregation buffer at an equimolar ratio to a final concentration of 1.2 μM (0.6 μM each) with 14 U PSP per nmol sensor proteins if not stated otherwise. […] For quantification of seeding-competent HTT species in tissue samples, the sensor-protein mixture was supplemented with up to 10% (v/v) tissue homogenate. Fluorescence signals were measured every 20 min following a 5 s pulse of vertical shaking with a Tecan M200 fluorescence plate reader at 25° C. for up to 48 h. CyPet donor fluorescence was measured at excitation (Ex): 435 nm/emission (Em): 475 nm; YPet acceptor fluorescence at Ex: 500 nm/Em: 530 nm; the FRET channel (DA) was recorded at Ex: 435 nm/Em: 530 nm. […]

- threshold for detecting seeds in FRASE assay: ~60 fM
B1: Ex1Q48 seeds: preformed recombinant mutant huntingtin exon 1 (48 glutamines) aggregates, sonicated, ~1,250 kDa (protein)
chain: MATLEKLMKAFESLKSFQQQQQQQQQQQQQQQQQQQQQQQQQQQQQQQQQQQQQQQQQQQQQQQQPPPPPPPPPPPQLPQPPPQAQPLLPQLQPPPPPPPPPPGPAAAEEPLHRP
